We go through two molecules from publication PMC11423568, “Functional investigation of the two ClpPs and three ClpXs in Myxococcus xanthus DK1622” (mSphere, 2024).

For series [1], the target named is T1, Myxococcus xanthus DK1622 trigger factor Tig (MXAN_2013), His- or MBP-tagged, for pulldown (Myxococcus xanthus DK1622, UniProt Q1DAT1 1-425).
T1 construct: ribosome-associated molecular chaperone trigger factor, Myxococcus xanthus DK1622, locus MXAN_2013; source: E. coli BL21, purified (Ni Sepharose for His tag, maltose elution for MBP)
T1 sequence (looked up): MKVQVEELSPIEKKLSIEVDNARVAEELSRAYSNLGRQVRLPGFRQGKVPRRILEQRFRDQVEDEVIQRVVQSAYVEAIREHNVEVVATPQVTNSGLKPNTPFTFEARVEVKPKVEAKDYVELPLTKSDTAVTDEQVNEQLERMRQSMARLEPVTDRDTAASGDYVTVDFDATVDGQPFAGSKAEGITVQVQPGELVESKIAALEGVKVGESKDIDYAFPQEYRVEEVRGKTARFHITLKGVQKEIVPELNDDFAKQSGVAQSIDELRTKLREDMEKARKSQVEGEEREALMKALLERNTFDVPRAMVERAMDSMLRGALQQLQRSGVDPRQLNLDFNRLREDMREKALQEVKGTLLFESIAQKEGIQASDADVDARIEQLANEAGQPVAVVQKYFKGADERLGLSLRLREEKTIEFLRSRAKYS
Kind of series: pull-down; purified His-tagged and MBP-tagged proteins mixed, room temperature 30 min, passed through Ni-NTA resin (His-tagged protein held), washed with suspension buffer, eluted with 250 mM imidazole; MBP mixed with His-labeled protein as negative control. The conditions noted are these: both partners purified.

Series [2] deals with the molecule itself. Kind of series: cross-linking; 20 µM ClpP1 or ClpP2 in 20 mM HEPES, 100 mM NaCl, 1 mM EDTA, pH 7.5, 25°C; glutaraldehyde (0.1% in methods, 1% in legend) 10 min, quenched with 200 mM Tris-HCl pH 7.5; SDS-PAGE.

In general, stoichiometry N refers to a count of units in the complex or per binding partner.

B1: Myxococcus xanthus DK1622 ClpP1 (MXAN_2014), His- or MBP-tagged, for pulldown (enzyme)
chain: not shown
notes: ClpP1, peptidase subunit of ClpXP, Myxococcus xanthus DK1622, locus MXAN_2014; source: E. coli BL21, purified (Ni Sepharose for His tag, maltose elution for MBP)
With B1, the binding result in series [1] is given as “binds”.

B2: Myxococcus xanthus DK1622 ClpP1 (MXAN_2014), no tag (enzyme)
chain: not shown
notes: ClpP1, peptidase subunit of ClpXP, Myxococcus xanthus DK1622, locus MXAN_2014; also called nonlabeled ClpP1; nontagged ClpP1; source: E. coli BL21, purified; copies: 14
Turning to B2, in series [2], the “stoichiometry N” value amounted to 14.
